According to patent US20230103704A1, “HUMAN ANTI-IN[…] FOR THE […] OF IN[…] ISSUES” (priority 2020, published 2023):

B1: dornase alfa: recombinant human deoxyribonuclease I, polypeptide produced in CHO cells, comparative example (protein, UniProt P24855 23-282, looked up)
Deoxyribonuclease-1: LKIAAFNIQTFGETKMSNATLVSYIVQILSRYDIALVQEVRDSHLTAVGKLLDNLNQDAPDTYHYVVSEPLGRNSYKERYLFVYRPDQVSAVDSYYYDDGCEPCGNDTFNREPAIVRFFSRFTEVREFAIVPLHAAPGDAVAEIDALYDVYLDVQEKWGLEDVMLMGDFNAGCSYVRPSQWSSIRLWTSPTFQWLIPDSADTTATPTHCAYDRIVVAGMLLRGAVVPDSALPFNFQAAYGLSDQLAQAISDHYPVEVMLK
B2: interferon gamma: human cytokine of 17 kD, 138 amino acids, SEQ ID NO: 14 (protein, listed as Homo sapiens)
chain: QDPYVKEAENLKKYFNAGHSDVADNGTLFLGILKNWKEESDRKIMQSQIVSFYFKLFKNFKDDQSIQKSVETIKEDMNVKFFNSNKKKRDDFEKLTNYSVTDLNVQRKAIHELIQVMAELSPAAKTGKRKRSQMLFRG

Assay type: physicochemical
Conditions: for MMAD / released dosage at the mouthpiece as share of the nominal value / released dosage: 0.1 mg/ml in physiological saline; for released dosage: at the mouthpiece; for time of aerosol release: corresponds to 30 strokes/breaths
Description: Aviptadil can be obtained, e.g., from Bachem AG, Bubendorf, Switzerland, in GMP quality.
The experimental procedure was carried out pursuant to Ph. Eur. 2.9.44 (Preparations for Nebulisation: Characterisation). A cascade impactor (Next Generation Impactor (NGI), Copley Scientific Ltd., Nottingham, UK) was used to determine the respective percentage for each fraction of the nebulized particles.
The thus generated aerosol was delivered to the cascade impactor by means of a mouthpiece (SK-211, NEBU-TEC, Eisenfeld, Germany).
The nebulization chamber (yellow stamp, 250 μl liquid discharge) was filled. The puff profile configured at the breath simulator was chosen in such a way that a correct simulation of inhalation by means of the nebulizer was ensured. The corresponding time was recorded.
Single values obtained for each cascade were added. […] MMAD, FPF and FPM were calculated from the obtained values: […]

Molecule	MMAD	released dosage at the mouthpiece as share of the nominal value	released dosage	time of aerosol release
Ac-Ser-Tyr-Ser-Met-Glu-His-Phe-Arg-Trp-Gly-Lys-Pro-Val-NH2 [α-melanocyte stimulating hormone]	3.11 μm	45%	0.045 mg	3 min
Colistin [reference compound]	3.61 μm	75%	0.075 mg	3 min
Gly-Leu-Ser-Lys-Gly-Cys-Phe-Gly-Leu-Lys-Leu-Asp-Arg-Ile-Gly-Ser-Met-Ser-Gly-Leu-Gly-Cys [C-type natriuretic peptide]	3.37 μm	77%	0.077 mg	3 min
His-Ser-Asp-Gly-Ile-Phe-Thr-Asp-Ser-Tyr-Ser-Arg-Tyr-Arg-Lys-Gln-Met-Ala-Val-Lys-Lys-Tyr-Leu-Ala-Ala-Val-Leu-Gly-Lys-Arg-Tyr-Lys-Gln-Arg-Val-Lys-Asn-Lys [PACAP-38]	3.25 μm	58%	0.058 mg	3 min
Ser-Pro-Lys-Met-Val-Gln-Gly-Ser-Gly-Cys-Phe-Gly-Arg-Lys-Met-Asp-Arg-Ile-Ser-Ser-Ser-Ser-Gly-Leu-Gly-Cys-Lys-Val-Leu-Arg-Arg-His [B-type natriuretic peptide]	3.46 μm	69%	0.069 mg	3 min
Tyr-Arg-Gln-Ser-Met-Asn-Asn-Phe-Gln-Gly-Leu-Arg-Ser-Phe-Gly-Cys-Arg-Phe-Gly-Thr-Cys-Thr-Val-Gln-Lys-Leu-Ala-His-Gln-Ile-Tyr-Gln-Phe-Thr-Asp-Lys-Asp-Lys-Asp-Asn-Val-Ala-Pro-Arg-Ser-Lys-Ile-Ser-Pro-Gln-Gly-Tyr [adrenomedullin]	3.41 μm	53%	0.053 mg	3 min
relaxin-3: human relaxin isoform, heterodimer of 51 amino acids, subunit 1 SEQ ID NO: 12 and subunit 2 SEQ ID NO: 13	3.36 μm	49%	0.049 mg	3 min
B1	3.72 μm	65%	0.065 mg	3 min
B2	3.46 μm	95%	0.045 mg	3 min
